Assay [1] concerns the target DNA damage-binding protein 1 (DDB1), full length human (human, UniProt Q16531 1-1140). As to the kind of experiment: crystal structure.
Assay [2] addresses Uracil-DNA glycosylase UNG2, catalytic domain (residues 83-304) (human, UniProt P13051-2 83-304). Kind of assay: crystal structure.

Uracil-DNA glycosylase UNG2, catalytic domain (residues 83-304), sequence (P13051 92-313): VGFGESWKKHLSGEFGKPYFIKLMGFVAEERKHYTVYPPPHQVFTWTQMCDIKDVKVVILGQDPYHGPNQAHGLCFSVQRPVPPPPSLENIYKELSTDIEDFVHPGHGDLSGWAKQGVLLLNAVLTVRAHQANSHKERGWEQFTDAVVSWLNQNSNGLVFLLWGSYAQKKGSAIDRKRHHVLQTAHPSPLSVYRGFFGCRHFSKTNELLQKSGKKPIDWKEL
DNA damage-binding protein 1 (DDB1), full length human, sequence (Q16531 whole entry, the tested form may be a part): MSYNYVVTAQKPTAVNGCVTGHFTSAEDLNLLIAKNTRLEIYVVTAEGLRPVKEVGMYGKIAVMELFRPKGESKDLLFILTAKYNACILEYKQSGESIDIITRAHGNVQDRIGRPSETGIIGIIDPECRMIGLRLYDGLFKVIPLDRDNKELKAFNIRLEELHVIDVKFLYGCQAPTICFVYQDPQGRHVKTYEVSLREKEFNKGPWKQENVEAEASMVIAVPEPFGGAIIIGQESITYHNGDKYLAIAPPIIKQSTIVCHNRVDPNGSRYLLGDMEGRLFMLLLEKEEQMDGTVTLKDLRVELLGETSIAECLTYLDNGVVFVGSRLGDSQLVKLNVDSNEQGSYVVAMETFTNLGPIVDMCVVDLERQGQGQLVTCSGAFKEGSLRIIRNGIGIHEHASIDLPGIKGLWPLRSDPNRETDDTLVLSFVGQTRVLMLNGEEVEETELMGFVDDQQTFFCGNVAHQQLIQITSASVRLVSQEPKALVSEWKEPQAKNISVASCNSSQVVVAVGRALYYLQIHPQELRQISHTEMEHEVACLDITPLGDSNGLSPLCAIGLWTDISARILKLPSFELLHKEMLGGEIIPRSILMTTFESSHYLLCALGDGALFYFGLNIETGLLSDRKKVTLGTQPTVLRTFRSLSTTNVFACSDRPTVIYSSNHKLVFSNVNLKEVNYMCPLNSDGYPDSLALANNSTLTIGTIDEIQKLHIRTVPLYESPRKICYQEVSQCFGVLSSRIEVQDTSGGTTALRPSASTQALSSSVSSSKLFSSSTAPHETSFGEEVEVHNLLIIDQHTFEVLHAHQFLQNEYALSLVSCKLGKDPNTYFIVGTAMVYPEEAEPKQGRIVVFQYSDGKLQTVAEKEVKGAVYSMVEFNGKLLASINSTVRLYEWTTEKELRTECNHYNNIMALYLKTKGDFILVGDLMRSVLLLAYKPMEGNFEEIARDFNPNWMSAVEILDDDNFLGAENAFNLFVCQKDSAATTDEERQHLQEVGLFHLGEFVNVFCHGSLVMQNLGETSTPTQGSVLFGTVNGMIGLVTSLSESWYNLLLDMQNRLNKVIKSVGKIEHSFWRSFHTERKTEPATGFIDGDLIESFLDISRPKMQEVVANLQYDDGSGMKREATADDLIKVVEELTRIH

B1: DDB1- and CUL4A-associated factor 1 (DCAF1), C-terminal region including the WD40 domain (residues 1046-1396) (domain or fragment)
chain: not shown
In the case of B1, the binding result in assay [1] is listed as “binds”.

B2: HIV-1 (NL4-3 clone) Vpr with H78C mutation (natural protein, UniProt P12520 1-96, looked up)
chain: MEQAPEDQGPQREPYNEWTLELLEELKSEAVRHFPRIWLHNLGQHIYETYGDTWAGVEAIIRILQQLLFIHFRIGCRCSRIGVTRQRRARNGASRS
For the molecule B2, the binding result in assay [2] is “binds”.

The values are drawn from publication PMC5385928 (Nature structural & molecular biology, 2016).
